Laboratory results from the DeepSol protein solubility set.

assay: soluble on expression in E. coli; label from the status in PepcDB or PDB records

Soluble on expression in E. coli, soluble:
SRKVFVGGLPPDIDEDEITASFRRFGPLVVDWPHKAESKSYFPPKGYAFLLFQEESSVQALIDACLEEDGKLYLCVSSPTIKDKPVQIRPWNLSDSDFVMD, MSLDIHCHILPEIDDGPSSLEESLVMAREAVKEGITKIIATPHHLHPSYNNKAAVVKEKVRKLNEAIQKENIPLEILPGQEVRISGDVMDGLVSGDILTLADQGKYLFVEFSSNHVSRYADKLFFQLLSQDIIPIIVHPERNHEFLKNPGLLYDLVNGGALTQITTSSLTGHLGKKIKKFTEQIIEADLTHFLASDAHNVTERTFRIREAFALVEKNYGSSKAYEFQENAELLVENQHVMGPPPQPIVKKKLLGIFEGHHHHHH, GSHMDLLDPVDILSKMPKDFYDKLEEKKWTLRKESLEVLEKLLTDHPKLENGEYGALVSALKKVITKDSNVVLVAMAGKCLALLAKGLAKRFSNYASACVPSLLEKFKEKKPNVVTALREAIDAIYASTSLEAQQESIVESLSNKNPSVKSETALFIARALTRTQPTALNKKLLKLLTTSLVKTLNEPDPTVRDSSAEALGTLIKLMGDKAVTPLLADVDPLKMAKIKECQEKAEIKIKVAG, MPTFLECPHCQRLYSKHSLLIHEKNCIESMHKILEQEKLKMQNNQKRGRSKSGRRKKIRPAEMTTTERPRTRSLSRYNHENNGLRICFVCGEQYDDQVIEEHKEKCYGDWSILSKSLSVRFHIHQPKTLNTPSIDGTIDVARENMRAVQSSHNCQIVRCRFCNARISLQHAQSHQCVRFEPTIEFYC, MAHHHHHHSLAYGNINQPFSLESLPDELIPENLYQIETDSSRVFQRHQCRRLAHLLLFQLLKIAGKSTALLSQIHRTESGRPYFLDERIDFNISHSGDWVAVILDIRNEEKSAVGIDIEFPKIRNFTALMEHIAPKEEIDWFHHQQDSLNAFYRCWCLREAVLKSQGFGIVKLSNVRHFPEQQKIFSDYCPQGQLWFTDELPIYLAAFVNHQEKLPHFYEWNRESLQIKELEKYVLYEVNEG, IVRPPFTYATLIRQAIMESSDRQLTLNEIYSWFTRTFAYFRRNAATWKNAVRHNLSLHKCFVRVENVKGAVWTVDEVEYQKRRSQKITGSPTL, LPLRESHTAHQATDFGVKVFQQVVQASKDRNVVFSPYGVSSVLAMLQMTTAGKTRRQIQDAMGFKVNEKGTAHALRQLSKELMGPWNKNEISTADAIFVQRDLELVQGFMPHFFKLFQTMVKQVDFSEVERARFIINDWVERHTKGMINDLLAKGAVDELTRLVLVNALYFSGQWKTPFLEASTHQRLFHKSDGSTVSVPMMAQSNKFNYTEFTTPDGLEYDVVELPYQGDTLSMFIAAPFEKDVHLSALTNILDAELIRQWKGNMTRLPRLLILPKFSLETEVDLRGPLEKLGMPDMFSATLADFTSLSDQEQLSVAQALQKVRIEVNESGTVASSSTAFVISARMAPTEMVIDRSFLFVVRHNPTETILFMGQVMEP, SNAMTMKVGFIGLGIMGKPMSKNLLKAGYSLVVSDRNPEAIADVIAAGAETASTAKAIAEQCDVIITMLPNSPHVKEVALGENGIIEGAKPGTVLIDMSSIAPLASREISDALKAKGVEMLDAPVSGGEPKAIDGTLSVMVGGDKAIFDKYYDLMKAMAGSVVHTGDIGAGNVTKLANQVIVALNIAAMSEALTLATKAGVNPDLVYQAIRGGLAGSTVLDAKAPMVMDRNFKPGFRIDLHIKDLANALDTSHGVGAQLPLTAAVMEMMQALRADGHGNDDHSALACYYEKLAKVEVTR, MANLEKKRVVVTGLGAITPIGNTLQDYWQGLMEGRNGIGPITRFDASDQACRFGGEVKDFDATQFLDRKEAKRMDRFCHFAVCASQQAINDAKLVINELNADEIGVLIGTGIGGLKVLEDQQTILLDKGPSRCSPFMIPMMIANMASGLTAINLGAKGPNNCTVTACAAGSNAIGDAFRLVQNGYAKAMICGGTEAAITPLSYAGFASARALSFRNDDPLHASRPFDKDRDGFVMGEGSGILILEELESALARGAKIYGEMVGYAMTCDAYHITAPVPDGRGATRAIAWALKDSGLKPEMVSYINAHGTSTPANDVTETRAIKQALGNHAYNIAVSSTKSMTGHLLGGSGGIEAVATVMAIAEDKVPPTINLENPDPECDLDYVPGQSRALIVDVALSNSFGFGGHNVTLAFKKYQ

Soluble on expression in E. coli, not soluble:
MSLKLLIVENDRDTAAALTTSLVAQQFTVDTASDSRSALELAEATEYDLIVLDVMLPDENGIRLCRQLRTQNQQEPILLLTRKVNPADRIAGFEAGADDYITKPYELSELLARIRALLRRGSTVLTKVLCWGQLQLDPNNCEVMCQGKGLHLTPKEYKLLELFLRHPRRIFDRRTLLDRICSIDECPGEEAITTQIRGLRRKLQMAGLNSDPIETLYGLGYRLKSEGHHHHHH, MAPRQLAAADLAVGQVVAQREIRLDAQAFAQFAALTGDAHPIHYDAGYVQRQGLRAPIAHGLLLVAISALGATPLSAQLHDAMVAMVGVEAVFMRPVYVDETVQCVYRVAQIEHVAKGRSKTTIAVSIHTTDAPPDAARQAHCVVHLTFLLKTHLQGLEHHHHHH, MGSDKIHHHHHHMSKPGAELEEVFSSVQGEGMLIGLRQVFIRFRGCNLTCDYCDTPAGTPAEPCRIEQTPGRRDFVPADNPVSLDRVAALVEGWQRGWPGVHDSISITGGEPLLRHDILMQWLPVLREHLPVYLETNGVMHAALGLVINHVDIIGMDIKIPSTSGCTDLWDDHRQFLEIANTRRAFIKIVVGEETEDWEITRASEIIAGVNRDIPLILQPVTRAGDTLGIKPVKALELQELACRYLAEVRIIPQTHRFMGQL, MGSDKIHHHHHHLTDAEIDASFNPYQAGPTTSPGITPGMKIDKSNAQKFRDIIDPATYALIEQGKLEFPVEETHSIALHPNYIAATKKHSSQVKLGSATGTIEGYVAGRPFPGKPDKSDPRAGEKLAFNYKYAQIVGDSGRIYPFIWQYKDARSGKVERQLEFDFNFLSFKHRTTQLPTADIEPNPSKFYRGIYLKVLSPQDLKNTQLLIQRFDDDTKLDDSYLYLGFQRRVRRLATGQTTDSFLGSDLMIEDFEGYNGRVPDMDWKYVETKVMLLPVYRHSEWKKTEPRDQMGYGQVQFDGQAQCFQNIPWSLRVVHVIEGVPVESRNPIGKRILYMDAQTSIFPIINMYDRKGALWKRWAIGFSDSAYHAPANQAAGIAIYTSASMLDVQAQHCTTLQLRMISDPALSPPSIFSVQNLRGGD, RNKVKYIELLGKELEILKGGDLNYQITIRGNDELAALAGEMDSMRRAIRSRQEEEELAHLANRGIVTAMSHDLRTPLTALMGYLDILSIEEDPGKKQKYLSVCRDKACQIKSLSDKLFEYFLVYSSDQDELHADEVNGAEFVGQIVEESLFDLENEGIEVARRAGEITCRLLVDVDLMRRVFGNLFSNILKYADRSHAVQAEYGETKDELVIRLRNSVAADASERESSNIGLKTCETILKRHGGTFLYQKDAGMFEAEVRIPCIRE, QNKNSVELDGGAIFKNDKLIDKMDKSETEAYNFMIGKVSSGSMEVLNPETNRDFISLWILNSKTTTKGKFYGGKFHVKKIVNVKVAFLESQSPITYNKYMQKQIEQNAEKNIINNCNKIFNKYKEKNEDIFNVRDVYENIYKKGSPDIIKNTVIDIEPHVQIERSGKASTF, MFSSAHSGLLEKLFHYIDLHQDEFVQTLKEWVAIESDSVQPVPRLRQKLFQMMALAADKLRNLGAGVESIDLGSQQMPDGQSLPIPPILLAELGSDPEKPTVCFYGHLDVQPAQKDDGWLTDPYTLTEVDGKLYGRGATDNKGPVLAWINAVSTFRALQQDLPVNIKLILEGMEEAGSIALEELVMREKDHFFSSVDYIVISDNLWLSQRKPALTYGTRGNCYFTVEVKCRDQDFHSGTFGGILNEPMADLVALLGSLVDSSGHILIPGIYDQMAPITEGEKTMYKNIDMDLEEYQNINQVEKFLFDTKEELLMHLWRYPSLSIHGIEGAFDEPGTKTVIPGRVLGKFSIRLVPTMSPSVVEKQVTQHLEAVFSKRNSFNKMAVSMVLGLHPWTANVNDTQYLAAQRTIKTVFGVNPDMIRDGSTIPIAKIFQAITQKSVMMLPLGAVDDGEHSQNEKINRWNYIQGSKLFAAFFLELSKQHSGHQMPSSVY, LGKQIMFDAFRFKCPPQELNAAIIKQLRGLLDLGIGEIKARAEKQEALLEYPIFFNDWQDNKKIIRNLLDRISADQLPLEIYRYTTFEDGSVLEEQLTLKEANEALTALQRIELEQDMLSQLEAGHISSRDEYVPDDEDV, MAHHHHHHMTMAVDSHDPSVRYLFFEEQRQQKQQKQQVPVDGTSSGSLPLLYSARPACHPVDDVRSAAALRRITEGFLNLDQQMKMWRRHLHRKLGNLESRLSRCESVLLQKKTPVPQPAVVKASTTTYNDIYDGVEDEFKRLHLTVTALREKAAECCRDGQSFFPPKRQGKKGKGEPAGKHAMCDDEDVSIEGGGVFDSHCEHVGVAKRMSPTADTTAVGSGESVGLTPDGAEMPSACLFLGETVVDGDWQHVEGMQPREASCCLYKLQNQSSFQPTPSFSTMTPVSEQKYFAMDSTCRHDWSPFIHEPCRPEKRIVRGGKPATMDKTPTNVPDLRMRSTATTTQEKCCEINESPLVQASSLERRLIYSPETPKRMQGQVSPVPSDAARSASSSTKRGMEIPLSNADSVEHLHNLAEPALSSKPVTNGQKRPDATPSSQHGGAFVDAFASAVAGVPSSSPLYVLPQQIYSSRGNSCDRSSEWDNTEDEEKASESSNEEVLSAVALSMPTVGTVWQRVVSLAHAEQYYDQLSRLNHPPLSMLSSDTLEISELTVQET, MGSDKIHHHHHHMDEYNFIVEKLQELGLTKREAEVYLAILMKNGATVKDLLETLDVHQPQLYNIIQSLIRKGFIRASAGRPRVYTANDITALIDVQKMKLDSLKRILQEELGKIRENEGEEPYISYVRSLEGVLASAIETINSAEVEIRAELPYQIYKELSPYFVSALRRGINLYLLVYPTTKSFIELADFKNQIKVKTSELGNFLLIISDLHRAVYSKRRFFTIHKLPISENEVYGYIIHEKDLLLRLLNIHNNLWVKAKEIIGWIPGPEVYPKTFIDFSMALNELEALLRLGYTPIVRVLGRDVKSEYPIEVSGRVRAVNRIGIVSNFILESNEGTFTVGGFDAEIEDIEAQRVIIEKVEREGGKKP, MESTLQIMPVQRTSRNFGEYAEEAVIIEEPIIKQKRPLFIEANTIEASLEHLRNDCIIPVFAKDNEATLSHVAFIEAVQDATNTFFSGEQIESPDIRVSHVIKGRIPEAIHKPANQLLESDKTIYYERCAFVIEVPTIYETVHGNRLTLTIGGVRAYNHTNLYSKKGAERFKVFIGFTCKVCTNLCVSTDGYLSCLEVTNTRDLYQAVLEMFHKYDAAKHIHLMQSLGNTSMTEHQFCQLLGRMRLYQSLPQGYQKDIPKMLLTDTQVNNVARAYINDENFGSLGNDLSMWKLYNLLTGANKSSYIDSFLDRAYNATELATGICSALHGDNKYQWFLS, MRIWSSEHIFDHEWETVAQAAFRKYPNPLNRSITGIDVVKQTLEAGKILTERIIQSHFSIPSWATKLTGFSGTQYSHEYTVIDPTRKEFSLTTRNLNGSSFLRVDEKLTYTPAHEDPNKTILKQDVIVTITLPAFADYCEKTFLSIYSQNANKGRQGVEWVIDHLKKEYEAISTKVSSEVHEMSEKVLRSFGTTSSSSPKPSTPPPPST, MSSPSKRREMDMMKLMMSDYKVETINDGMQEFYVEFNGPKDSLYQGGVWKIRVELPDAYPYKSPSVGFITKIYHPNVDELSGSVCLDVINQTWSPMFDLVNVFETFLPQLLLYPNPSDPLNGEAAALMMRDRPAYEQRVKEYCEKYAKPGEGSEDKSSDEELSEEEYGSDNEDDDDDDVAIAGKPDP
